# Experimental data taken from patent US20050164906A1 (APPLIED RESEARCH SYSTEMS ARS HOLDING N V, published 2005).
# Numbering of substitutions follows the chain as printed.
# B1: ΔN-GILZ, GILZ lacking the N-terminal region (first 8 amino acids of mGILZ fused with the residues 73-137), in vitro 35S-labeled (other)
# chain: MNTEMYQTVEVLKEQIRELLEKNSQLERENTLLKTLASPEQLEKFQSRLSPEEPAPEAPETPETPEAPGGSAV
# modifications: [35S]-Methionine label ; [35S]-methionine isotopic label from in vitro translation; letters unchanged
# notes: also called DN-GILZ; 35S-ΔN-GILZ
# B2: Glutathione S-transferase GILZ fusion protein (GST-GILZ), containing entire mouse GILZ (other, UniProt Q9Z2S7 1-137, looked up)
# chain: MNTEMYQTPMEVAVYQLHNFSISFFSSLLGGDVVSVKLDNSASGASVVALDNKIEQAMDLVKNHLMYAVREEVEVLKEQIRELLEKNSQLERENTLLKTLASPEQLEKFQSRLSPEEPAPEAPETPETPEAPGGSAV
# notes: range 1-137; Immobilised on glutathione Sepharose beads; Prepared as in Ayroldi E et al., 2001; not shown: Glutathione S-transferase (GST) encoded by the pGEX-4T2 plasmid (Pharmacia)
# B3: GILZ, endogenous, in whole cell lysates of murine thymocytes (DEX-treated or untreated) (other, mouse, UniProt Q9Z2S7 1-137, looked up)
# chain: B2 chain
# notes: also called mGILZ
# B4: in vitro 35S-labeled full GILZ (full-length mouse GILZ, in vitro translated) (other, UniProt Q9Z2S7 1-137, looked up)
# chain: B2 chain
# modifications: [35S]-Methionine label
# notes: range 1-137; also called 35S-GILZ; GILZ full-length protein
# B5: ΔC-GILZ, GILZ lacking the C-terminal region (first 97 amino acids of mouse GILZ), in vitro 35S-labeled (other)
# chain: MNTEMYQTPMEVAVYQLHNFSTSFFSSLLGGDVVSVKLDNSASGASVVALDNKIEQAMDLVKNHLMYAVREEVEVLKEQIRELLEKNSQLERENTLL
# modifications: [35S]-methionine isotopic label from in vitro translation; letters unchanged
# notes: also called 35S-AC-GILZ
# Assays:
# [1] = biological target: T1, GST-Raf-RBD, GST fusion protein comprising the Ras Binding Domain of human Raf (Raf-RBD, residues 1-149) (human, UniProt P04049 1-149); assay: GST pull-down of in vitro 35S-labeled protein
# T1 construct: range 1-149; Immobilised on glutathione Sepharose beads; not shown: Glutathione S-transferase (GST) encoded by the pGEX-4T2 plasmid (Pharmacia)
# [2] = biological target: T2, N87A-GILZ, full mouse GILZ in which an Asparagine is mutated in Alanine, in vitro 35S-labeled (mouse, UniProt Q9Z2S7 1-137, [35S]-Methionine label); assay: GST pull-down of in vitro 35S-labeled protein
# T2 construct: range 1-137
# T2 sequence (looked up): B2 chain with N87A
# [3] = biological target: T3, ERK-1 in lysates of murine thymocytes (mouse, UniProt Q63844 2-380); assay: GST pull-down from murine thymocyte lysates, Western blot with α-ERK-1/-2
# T3 construct: Detected together with ERK-2 by α-ERK-1/-2 antibodies; also called ERK-1/-2
# Protocol: (§1) Extracts were prepared from the indicated cell, treated or untreated with DEX (10 microMolar), as previously described (Ayroldi E et al., 2001). GST or GST fusion proteins, loaded on Sepharose beads, were mixed with cell extracts in binding buffer (NaCl 250 milliMolar, HEPES (ph7.5) (pH 7.5) 50 milliMolar, EDTA 0.5 milliMolar, Nonidet P-40 0.1% (v/v), phenylmethylsulfonyl fluoride (PMSF) 0.2 milliMolar, dithiothreitol (DTT) 1 milliMolar, bovine serum albumin (BSA) 100 μg/ml), heated for 5 minutes at 42° C., incubated for 2 hours at 4° C., washed extensively with binding buffer, resuspended in loading buffer and analysed by SDS-PAGE and Western blot as described above. In the case of murine thymocytes extracts, the incubation with the beads was performed overnight and at 4° C. The α-MEK and α-ERK antibodies (Upstate Biotechnology) were used following manufacturer's instructions.
# [4] = biological target: T4, ERK-2 in lysates of murine thymocytes (mouse, UniProt P63085 2-358); assay: as above
# T4 construct: Detected together with ERK-1 by α-ERK-1/-2 antibodies; also called ERK-1/-2
# Protocol: as §1
# [5] = biological target: T5, GST alone (Glutathione S-transferase, control) (UniProt P08515 1-218 = GST); assay: GST pull-down from thymocyte whole cell lysates, Western blot with α-GILZ
# T5 construct: Control loaded on glutathione Sepharose beads; also called GST-protein alone
# Protocol: as §1
# [6] = biological target: T5, GST alone (Glutathione S-transferase, …); assay: GST pull-down of in vitro 35S-labeled protein
# T5 sequence (P08515 whole entry): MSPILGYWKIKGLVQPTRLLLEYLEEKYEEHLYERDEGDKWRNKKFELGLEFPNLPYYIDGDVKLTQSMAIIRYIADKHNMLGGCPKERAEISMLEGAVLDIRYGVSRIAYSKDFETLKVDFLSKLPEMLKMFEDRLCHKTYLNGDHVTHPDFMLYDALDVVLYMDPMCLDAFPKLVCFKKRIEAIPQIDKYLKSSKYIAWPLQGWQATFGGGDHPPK
# T3 sequence (Q63844 2-380 limits assumed): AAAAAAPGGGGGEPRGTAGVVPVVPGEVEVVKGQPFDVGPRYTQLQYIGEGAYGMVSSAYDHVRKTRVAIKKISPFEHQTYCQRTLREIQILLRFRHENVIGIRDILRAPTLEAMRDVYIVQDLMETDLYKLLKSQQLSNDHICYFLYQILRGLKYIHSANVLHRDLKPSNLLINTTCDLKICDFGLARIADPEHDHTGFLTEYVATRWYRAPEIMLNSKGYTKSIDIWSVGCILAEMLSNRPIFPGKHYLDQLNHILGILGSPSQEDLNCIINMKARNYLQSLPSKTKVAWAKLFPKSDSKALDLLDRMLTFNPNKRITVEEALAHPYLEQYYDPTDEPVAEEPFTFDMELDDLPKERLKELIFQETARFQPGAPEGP
binder,measurement,setting,value
B1,binding result,[1],no binding
B2,binding result,[2],no binding
same,binding result,[3],no binding
same,binding result,[4],no binding
B3,binding result,[5],no binding
B4,binding result,[6],no binding
B5,binding result,[6],no binding
